# Assay results as given in patent US20220411483A1 (Chugai, published 2022).
# Where a chain is given by its changes, count along the chain named.
# T1: human FcγRIIa R type extracellular domain with C-terminal His tag (human, UniProt P12318 34-217)
# T1 construct: extracellular domain; also called FcgRIIaR
# T1 sequence (looked up): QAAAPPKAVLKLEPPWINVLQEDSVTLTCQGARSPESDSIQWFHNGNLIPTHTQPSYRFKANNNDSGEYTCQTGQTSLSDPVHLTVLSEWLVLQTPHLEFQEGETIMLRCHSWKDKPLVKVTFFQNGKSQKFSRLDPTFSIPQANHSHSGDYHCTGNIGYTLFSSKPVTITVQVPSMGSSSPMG
# T2: human FcγRIIb extracellular domain with C-terminal His tag (human, UniProt P31994 43-217)
# T2 construct: extracellular domain; also called FcgRIIb
# T2 sequence (looked up): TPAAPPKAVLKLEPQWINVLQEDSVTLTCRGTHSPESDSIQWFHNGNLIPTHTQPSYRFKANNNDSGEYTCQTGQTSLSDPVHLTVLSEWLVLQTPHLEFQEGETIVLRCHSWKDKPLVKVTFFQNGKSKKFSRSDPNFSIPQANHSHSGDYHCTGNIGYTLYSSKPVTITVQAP
# T3: human FcγRIIa H type extracellular domain with C-terminal His tag (human, UniProt P12318 34-217)
# T3 construct: extracellular domain; also called FcgRIIaH
# T3 sequence (looked up): T1 sequence (looked up) with R134H
# B1: IL6R-P749/IL6R-L (antibody, human IgG1, kappa)
# heavy: QVQLQESGPGLVKPSETLSLTCAVSGHSISHDHAWSWVRQPPGEGLEWIGFISYSGITNYNPSLQGRVTISRDNSKNTLYLQMNSLRAEDTAVYYCARSLARTTAMDYWGEGTLVTVSSASTKGPSVFPLAPSSKSTSGGTAALGCLVKDYFPEPVTVSWNSGALTSGVHTFPAVLQSSGLYSLSSVVTVPSSSLGTQTYICNVNHKPSNTKVDKKVEPKSCDKTHTCPPCPAPELLGQDSVMLFPPKPKDTLMISRTPEVTCVVVDVSPEDPEVKFNWYVDGVEVHNAKTKPREEQENSTYRVVSVLTVLHQDWLNGKEYKCEVSNKALPHPIEKTISKAKGQPREPQVYTLPPSRDELTKNQVSLTCLVKGFYPSDIAVEWESNGQPENNYKTTPPVLDSDGSFFLYSKLTVDKSRWQQGNVFSCSVMHEALHNHYTQKSLSLSP
# light: not shown
# B2: IL6R-P760/IL6R-L (antibody, human IgG1, kappa)
# heavy: B1 heavy with Q239D, M243F, P270E, P273G, E298Y, E324K, A329G, H332S, P333S
# light: not shown
# B3: IL6R-P751/IL6R-L (antibody, human IgG1, kappa)
# heavy: B1 heavy with L237F, H332A
# light: not shown
# B4: IL6R-P761/IL6R-L (antibody, human IgG1, kappa)
# heavy: B1 heavy with E235D, Q239D, M243F, P270E, P273G, E298Y, E324K, A329G, H332S, P333S
# light: not shown
# B5: IL6R-P759/IL6R-L (antibody, human IgG1, kappa)
# heavy: B1 heavy with E235D, Q239D, M243F, P270D, P273G, E298Y, E324K, A329G, H332S, P333S
# light: not shown
# B6: IL6R-P753/IL6R-L (antibody, human IgG1, kappa)
# heavy: B1 heavy with L237F, S326H, H332A
# light: not shown
# B7: IL6R-P755/IL6R-L (antibody, human IgG1, kappa)
# heavy: B1 heavy with S326H
# light: not shown
# B8: IL6R-P754/IL6R-L (antibody, human IgG1, kappa)
# heavy: B1 heavy with E324A, S326H
# light: not shown
# B9: IL6R-P752/IL6R-L (antibody, human IgG1, kappa)
# heavy: B1 heavy with L237F, E324A, S326H, H332A
# light: not shown
# B10: IL6R-P758/IL6R-L (antibody, human IgG1, kappa)
# heavy: B1 heavy with Q239D, M243F, P270D, P273G, E298Y, E324K, A329G, H332S, P333S
# light: not shown
# B11: IL6R-P750/IL6R-L (antibody, human IgG1, kappa)
# heavy: B1 heavy with L237F, E324A, H332A
# light: not shown
# B12: IL6R-P762/IL6R-L (antibody, human IgG1, kappa)
# heavy: B1 heavy with Q239G, M243F, P270H, P273G, E298Y, E324K, A329G, H332S, P333S
# light: not shown
# B13: IL6R-P757/IL6R-L (antibody, human IgG1, kappa)
# heavy: QVQLQESGPGLVKPSETLSLTCAVSGHSISHDHAWSWVRQPPGEGLEWIGFISYSGITNYNPSLQGRVTISRDNSKNTLYLQMNSLRAEDTAVYYCARSLARTTAMDYWGEGTLVTVSSASTKGPSVFPLAPSSKSTSGGTAALGCLVKDYFPEPVTVSWNSGALTSGVHTFPAVLQSSGLYSLSSVVTVPSSSLGTQTYICNVNHKPSNTKVDKKVEPKSCDKTHTCPPCPAPELLGGDSVFLFPPKPKDTLMISRTPEVTCVVIDVAEEDGEVKFNWYVDGVEVHNAKTKPREEQYNSTYRVVSVLTVLHQDWLNGKEYKCKVSNKGLPSSIEKTISKAKGQPREPQVYTLPPSRDELTKNQVSLTCLVKGFYPSDIAVEWESNGQPENNYKTTPPVLDSDGSFFLYSKLTVDKSRWQQGNVFSCSVMHEALHNHYTQKSLSLSP
# light: not shown
# B14: IL6R-P756/IL6R-L (antibody, human IgG1, kappa)
# heavy: B13 heavy with E235D
# light: not shown
# Target: T1, human FcγRIIa R type extracellular …
# Experiment: SPR, antibody captured, FcgR analyte
row,Binder,Kd
1,B1,22000 nM
2,B2,1600 nM
3,B3,19000 nM
4,B4,1100 nM
5,B5,1400 nM
6,B6,18000 nM
7,B7,17000 nM
8,B8,10000 nM
9,B9,41000 nM
10,B10,1900 nM
11,B11,49000 nM
12,B12,3400 nM
13,B13,2300 nM
14,B14,1700 nM

# Target: T2, human FcγRIIb extracellular domain with …
# Experiment: SPR, antibody captured, FcgR analyte
row,Binder,Kd
1,B1,4000 nM
2,B2,190 nM
3,B3,3500 nM
4,B4,120 nM
5,B5,150 nM
6,B6,2800 nM
7,B7,4100 nM
8,B8,7700 nM
9,B9,4200 nM
10,B10,260 nM
11,B11,4000 nM
12,B12,550 nM
13,B13,100 nM
14,B14,52 nM

# Target: T4, human FcγRIa extracellular domain with C-terminal His tag (human, UniProt P12314 16-292)
# T4 construct: Whole entry named; also called FcgRIa
# Experiment: SPR, antibody captured, FcgR analyte
# T4 sequence (P12314 16-292): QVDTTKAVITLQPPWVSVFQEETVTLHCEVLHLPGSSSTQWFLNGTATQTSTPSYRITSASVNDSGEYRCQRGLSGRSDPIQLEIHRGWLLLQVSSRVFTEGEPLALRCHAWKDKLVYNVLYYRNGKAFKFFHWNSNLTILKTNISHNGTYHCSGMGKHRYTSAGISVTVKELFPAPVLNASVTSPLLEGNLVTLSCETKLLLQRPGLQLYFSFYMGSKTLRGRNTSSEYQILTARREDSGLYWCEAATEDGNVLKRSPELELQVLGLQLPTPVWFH
row,Binder,Kd
1,B1,52 nM
2,B2,15 nM
3,B3,240 nM
4,B4,8 nM
5,B5,5.5 nM
6,B6,110 nM
7,B7,85 nM
8,B8,190 nM
9,B9,150 nM
10,B10,11 nM
11,B11,230 nM
12,B12,6.1 nM
13,B13,1.7 nM
14,B14,1.1 nM

# Target: T1, human FcγRIIa R type extracellular …
# Experiment: SPR, KD of IL6R-G1d/IL6R-L divided by KD of variant
row,Binder,Relative FcgRIIaR-binding Activity
1,B1,0.05
2,B2,0.69
3,B3,0.06
4,B4,1
5,B5,0.79
6,B6,0.06
7,B7,0.06
8,B8,0.11
9,B9,0.03
10,B10,0.58
11,B11,0.02
12,B12,0.32
13,B13,0.48
14,B14,0.65

# Target: T2, human FcγRIIb extracellular domain with …
# Experiment: as above
row,Binder,Relative FcgRIIb-binding Activity
1,B1,0.5
2,B2,11.1
3,B3,0.6
4,B4,17.5
5,B5,14
6,B6,0.8
7,B7,0.5
8,B8,0.3
9,B9,0.5
10,B10,8.1
11,B11,0.5
12,B12,3.8
13,B13,21
14,B14,40.4

# Target: T4, human FcγRIa extracellular domain with …
# Experiment: as above
row,Binder,Relative FcgRIa-binding Activity
1,B1,0.006
2,B2,0.021
3,B3,0.001
4,B4,0.04
5,B5,0.058
6,B6,0.003
7,B7,0.004
8,B8,0.002
9,B9,0.002
10,B10,0.029
11,B11,0.001
12,B12,0.052
13,B13,0.188
14,B14,0.291

# Target: T3, human FcγRIIa H type extracellular …
# Experiment: as above
row,Binder,Relative FcgRIIaH-binding Activity
1,B1,0.009
2,B2,0.027
3,B3,0.013
4,B4,0.036
5,B5,0.024
6,B6,0.014
7,B7,0.005
8,B8,0.003
9,B9,0.013
10,B10,0.021
11,B11,0.013
12,B12,0.021
13,B13,0.026
14,B14,0.03

# Target: T5, human FcγRIIIa V type extracellular domain with C-terminal His tag (human, UniProt P08637 17-208)
# T5 construct: extracellular domain; also called FcgRIIIaV
# Experiment: as above
# T5 sequence (P08637 17-208 F176V): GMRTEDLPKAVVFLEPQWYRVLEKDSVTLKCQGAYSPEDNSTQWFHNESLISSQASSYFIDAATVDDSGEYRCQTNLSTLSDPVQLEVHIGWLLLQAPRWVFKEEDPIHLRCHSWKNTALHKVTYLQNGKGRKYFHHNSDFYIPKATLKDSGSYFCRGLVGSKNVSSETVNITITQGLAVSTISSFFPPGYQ
row,Binder,Relative FcgRIIIaV-binding Activity
1,B1,0.004
2,B2,0.008
3,B3,0.007
4,B4,0.008
5,B5,0.005
6,B6,0.007
7,B7,0.005
8,B8,0.004
9,B9,0.006
10,B10,0.006
11,B11,0.006
12,B12,0.007
13,B13,0.008
14,B14,0.007
